# Results as given in article PMC7891125 (Cell, 2021).
# What was measured:
# [1] = target: SARS-CoV-2 spike on intact virus (SARS-CoV-2/human/AUS/VIC01/2020) (SARS-CoV-2, isolate …, strain); assay: cell-based or functional assay
# [2] = target: His-tagged SARS-CoV-2 RBD (SARS-CoV-2 Wuhan-Hu-1 (MN908947), UniProt P0DTC2); assay: BLI; Octet RED 96e; anti-RBD IgGs immobilised on AR2G biosensors, RBD as the analyte in serial dilutions; 1:1 global fitting model; conditions: both partners purified
binder,measurement,setting,value
"mAb 159 (antibody, V domains shown) VH: EVQLVESGGGVVQPGRSLRLSCAASGFTFSSYGMHWVRQAPGKGLEWVALISYDGGNRYYADSVKGRFTISRDNSKNTLYLQMNRLRAEDTAMYYCAKDRDDGWDWYYFMDVWGKGTTVTVSS VL: DIQLTQSPGTLSLSPGERATLSCRASQSISGNYLAWYQHKPGQAPRLLIYGASTRATGIPDRFSGSGSGTDFTLTISRLEPEDFAVYYCQQYGSSYTFGQGTKVEIK","FRNT, neutralisation of authentic SARS-CoV-2 on Vero cells, IC50",[1],5 ng/mL
"mAb 316, de-glycosylated (antibody, V domains shown) VH: not shown VL: QAVLTQPPSASGSPGQSVTISCTGTSSDVGGYNYVSWYQQHPGKAPKLMIYEVSKRPSGVPDRFSGSKSGNTASLTVSGLQAEDEADYYCSSYAGSNHWVFGGGTKLTVL",Kd,[2],1 nM
"mAb 316 (antibody, V domains shown) VH: not shown VL: QAVLTQPPSASGSPGQSVTISCTGTSSDVGGYNYVSWYQQHPGKAPKLMIYEVSKRPSGVPDRFSGSKSGNTASLTVSGLQAEDEADYYCSSYAGSNHWVFGGGTKLTVL",Kd,[2],2 nM
